Data on 1 molecule can be found in publication PMC10926643 (2024).

This assay has as its target T1, recombinant FGF12 fused with the His-tag (UniProt P61328 1-243).
T1 chain: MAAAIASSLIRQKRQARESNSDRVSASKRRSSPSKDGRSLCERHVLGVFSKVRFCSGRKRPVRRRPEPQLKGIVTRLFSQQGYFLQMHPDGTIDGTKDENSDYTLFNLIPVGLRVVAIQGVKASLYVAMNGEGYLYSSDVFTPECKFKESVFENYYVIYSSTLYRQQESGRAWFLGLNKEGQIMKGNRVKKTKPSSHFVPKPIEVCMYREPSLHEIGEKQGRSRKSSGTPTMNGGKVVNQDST
Description: SPR. (In general: Surface plasmon resonance follows binding to a sensor surface in real time, without labels.)

B1: recombinant galectin-8 (natural protein)
chain: MMLSLNNLQNIIYNPVIPFVGTIPDQLDPGTLIVIRGHVPSDADRFQVDLQNGSSMKPRADVAFHFNPRFKRAGCIVCNTLINEKWGREEITYDTPFKREKSFEIVIMVLKDKFQVAVNGKHTLLYGHRIGPEKIDTLGIYGKVNIHSIGFSFSSDLQSTQASSLELTEISRENVPKSGTPQLRLPFAARLNTPMGPGRTVVVKGEVNANAKSFNVDLLAGKSKDIALHLNPRLNIKAFVRNSFLQESWGEEERNITSFPFSPGMYFEMIIYCDVREFKVAVNGVHSLEYKHRFKELSSIDTLEINGDIHLLEVRSW
B1: the Kd is 581 nM.

In general, Kd refers to the concentration at which binding is half-saturated.
